Data as given in the RNAGym collection of RNA variant scans (doi:10.1093/molbev/msab373).

B1: Azoarcus group I ribozyme (parent)
chain: GUGCCUUGCGCCGGGAAACCACGCAAGGGAUGGUGUCAAAUUCGGCGAAACCUAAGCGCCCGCCCGGGCGUAUGGCAACGCCGAGCCAAGCUUCGGCGCCUGCGCCGAUGAAGGUGUAGAGACUAGACGGCACCCACCUAAGGCAAACGCUAUGGUGAAGGCAUAGUCCAGGGAGUGGCGAAAGUCACACAAACCGG

Variants of: B1
Assay: reverse-splicing fitness (ratio to wild type); higher = more active; in vitro selection; Mg2+ level not given
In short: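 An in vitro group I ribozyme library with randomized positions was T7-transcribed and gel-purified. In triplicate, 10 pmol RNA in EPPS pH 7.5 was reacted with 50 pmoles of a 30-nt RNA substrate for 1 h at 37 °C across several added MgCl2 levels (1–48 mM), then stopped with EDTA. Products were reverse transcribed from a substrate-complementary primer, PCR-amplified and sequenced (HiSeq 4000). Fitness is a variant's read proportion after selection over that before, normalised to wild type.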

Variant	reverse-splicing fitness
C82U A111U A145C C150G C169G U176A	0.00901
C82U A111U A145C C150G C169G U176C	0.00693
C82U A111U A145C C150G C169G U176G	0.00581
C82U A111U A120U C150U C169A U176C	0.00314
C82U A111U A120U C150U C169A U176A	0.0038
C82U A111U A120U C150U C169A U176G	0.00205
C82U A111U A145G C169G U176A	0.0207
C82U A111U A145G C169G U176G	0.00528
C82U A111U A145G C169G U176C	0.027
C82U A111U A120U A145G C150U C169A U176A	0.00543
C82U A111U A120U A145G C150U C169A U176C	0.0032
C82U A111U A120U A145G C150U C169A U176G	0.00269
C82U A111U A120U A145G C150A C169U U176A	0.00439
C82U A111U A120U A145G C150A C169U U176C	0.00345
C82U A111U A120U A145G C150A C169U U176G	0.00228
C82U A111U A145C C169A U176A	0.00952
C82U A111U A145C C169A U176G	0.00457
C82U A111U A145C C169A U176C	0.00614
C82U A111U A120U A145U C150U C169U U176A	0.00293
C82U A111U A120U A145U C150U C169U U176G	0.00227
C82U A111U A120U A145U C150U C169U U176C	0.00392

Variant	reverse-splicing fitness
C82U A111U A145C C150U C169U U176C	0.0076
C82U A111U A145C C150U C169U U176G	0.00525
C82U A111U A145C C150U C169U U176A	0.0134
C82U A111U A145G C169U	0.0114
C82U A111U A145G C169G	0.00856
C82U A111U A145G C169A	0.00999
C82U A111U A120U A145G C169U U176C	0.00323
C82U A111U A120U A145G C169U U176G	0.00207
C82U A111U A120U A145G C169U U176A	0.00304
C82U A111U A145C C150G	0.0299
C82U A111U A145C C150A	0.0151
C82U A111U A145C C150U	0.0602
C82U A111U A120U A145U U176C	0.0111
C82U A111U A120U A145U U176A	0.00758
C82U A111U A120U A145U U176G	0.00339
C82U A111U A145G C150U	0.235
C82U A111U A145G C150A	0.0405
C82U A111U A145G C150G	0.0326
C82U A111U A120U C150U C169A	0.00397
C82U A111U A120U C150U C169U	0.00426
C82U A111U A120U C150U C169G	0.00465

Variant	reverse-splicing fitness
C82U A111U A145G C150G C169A U176G	0.0074
C82U A111U A145G C150G C169A U176A	0.0125
C82U A111U A145G C150G C169A U176C	0.0112
C82U A111U A145G C150U C169U U176C	0.013
C82U A111U A145G C150U C169U U176A	0.0149
C82U A111U A145G C150U C169U U176G	0.00571
C82U A111U A120U A145G C150A C169G U176G	0.00241
C82U A111U A120U A145G C150A C169G U176A	0.00789
C82U A111U A120U A145G C150A C169G U176C	0.0045
C82U A111U A145C C169U U176G	0.00463
C82U A111U A145C C169U U176C	0.0103
C82U A111U A145C C169U U176A	0.0134
C82U A111U A145C C150G C169U	0.00864
C82U A111U A145C C150G C169A	0.00853
C82U A111U A145C C150G C169G	0.0072
C82U A111U A120U A145U C169G U176A	0.00244
C82U A111U A120U A145U C169G U176C	0.00286
C82U A111U A120U A145U C169G U176G	0.00176
C82U A111U A120U A145G C150G C169A	0.00819
C82U A111U A120U A145G C150G C169G	0.00647
C82U A111U A120U A145G C150G C169U	0.00706

Variant	reverse-splicing fitness
C82U A111U A120U A145G C150U C169G U176A	0.00606
C82U A111U A120U A145G C150U C169G U176G	0.00243
C82U A111U A120U A145G C150U C169G U176C	0.00383
C82U A111U A145C C150A C169U	0.00873
C82U A111U A145C C150A C169A	0.00809
C82U A111U A145C C150A C169G	0.00741
C82U A111U A120U A145U C150U C169A U176C	0.00275
C82U A111U A120U A145U C150U C169A U176G	0.00202
C82U A111U A120U A145U C150U C169A U176A	0.00292
C82U A111U A120U A145G C150U U176C	0.0115
C82U A111U A120U A145G C150U U176A	0.00787
C82U A111U A120U A145G C150U U176G	0.00322
C82U A111U A145G U176C	0.159
C82U A111U A145G U176A	0.107
C82U A111U A145G U176G	0.0229
C82U A111U A120U C150G C169U U176G	0.00264
C82U A111U A120U C150G C169U U176C	0.00377
C82U A111U A120U C150G C169U U176A	0.00294
C82U A111U A145G C150G C169U U176A	0.0114
C82U A111U A145G C150G C169U U176G	0.00654
C82U A111U A145G C150G C169U U176C	0.0115
